Here are results for one substance from patent US20100216663A1.

In the test the target is human IgE (human) (UniProt P01854). Briefly: Biacore, human IgE on CM5 chip, sample protein in flow. For orientation: SPR reads the build-up and loss of mass on a sensor chip optically.
Sequence of human IgE (human) (P01854 other isoform, or with tags, fused parts or gaps): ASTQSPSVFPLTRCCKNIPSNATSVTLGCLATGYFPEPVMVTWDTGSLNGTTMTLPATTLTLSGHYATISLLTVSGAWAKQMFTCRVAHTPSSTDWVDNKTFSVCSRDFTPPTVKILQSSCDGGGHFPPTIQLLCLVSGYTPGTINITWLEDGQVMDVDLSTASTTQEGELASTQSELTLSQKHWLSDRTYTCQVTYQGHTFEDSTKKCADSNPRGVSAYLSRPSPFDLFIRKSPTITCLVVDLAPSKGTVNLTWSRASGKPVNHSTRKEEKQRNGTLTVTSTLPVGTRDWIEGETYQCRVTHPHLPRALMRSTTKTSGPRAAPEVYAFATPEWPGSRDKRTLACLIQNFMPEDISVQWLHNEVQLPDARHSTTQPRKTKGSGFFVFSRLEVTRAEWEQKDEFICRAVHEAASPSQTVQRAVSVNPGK

A word on the Kd: it is the free concentration of one partner at which half of the binding sites on the other are occupied at equilibrium, for simple one-to-one binding. A high value points to weaker binding. Take “recombinant human FcERI protein (from UniProt P12319 26-205) (receptor)”: the Kd was determined as 450 nM.
